Laboratory results reported in patent US7238711 (CAMBRIDGE ENTERPRISE, dated 2007).

T1: Duffy Antigen Receptor for Chemokines (DARC) (human, UniProt Q16570 1-336)
T1 construct: whole, on cells; also called red blood cells expressing DARC
T1 sequence (looked up): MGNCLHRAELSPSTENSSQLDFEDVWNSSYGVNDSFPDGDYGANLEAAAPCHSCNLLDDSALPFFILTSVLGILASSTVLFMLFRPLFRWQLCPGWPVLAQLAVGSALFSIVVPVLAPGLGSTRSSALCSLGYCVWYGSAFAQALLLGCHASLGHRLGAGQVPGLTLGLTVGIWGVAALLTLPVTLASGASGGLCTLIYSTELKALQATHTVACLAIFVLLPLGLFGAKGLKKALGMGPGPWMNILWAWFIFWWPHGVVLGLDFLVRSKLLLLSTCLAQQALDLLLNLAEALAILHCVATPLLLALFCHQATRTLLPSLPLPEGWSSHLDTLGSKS


Tests used:
[1] = target: T1, Duffy Antigen Receptor for Chemokines …; assay: ka for red blood cells divided by ka for THP-1 cells
[2] = target: T1, Duffy Antigen Receptor for Chemokines …; assay: DARC binding, Table 18

| Binder | Duffy selectivity [1] | DARC binding [2] |
| --- | --- | --- |
| DYFETSSQCSKPGV (also called Pep2[MIP1α]; peptide 2(1-15)[MIP1-α]) [Pep2(1-14)[MIP1α]] | > 100 | – |
| HLKILNTPNCALQIV (also called Pep2[SDF1]; peptide 2(1-15)[SDF1α]) [Pep2(1-15)[SDF1]] | < 1 | 19 µM |
| SYRRITSSKC | – | 22 µM |
| SYRRITSSKCPKEAV (also called Pep2[MCP1]; Pep2(1-15)[MCP1]) [peptide 2(1-15)[MCP-1]] | 0.18 | 0.1 µM |
